Measured values published in PMC5203670, “Biosynthesis of selenate reductase in Salmonella enterica: critical roles for the signal peptide and DmsD” (Microbiology, 2016).
Like-named read-outs stand apart in the source and are kept apart here.

Experiments:
[1] = target: YnfE signal peptide (Salmonella enterica); conditions: cited from earlier work
[2] = target: T25-DmsD fusion protein (S. enterica DmsD attached to the C-terminus of T25) (Salmonella enterica serovar Typhimurium) (UniProt Q8ZPK0); test: two-hybrid; bacterial adenylate cyclase two-hybrid (spYnfE-T18 and T25-DmsD) in E. coli MAE01 (ΔcyaA); cultures at 30 °C, β-galactosidase activity in Miller units, shown relative to the native pair
[3] = target: T25-DmsD fusion protein (S. enterica DmsD attached to the C-terminus of T25) (Salmonella enterica serovar Typhimurium) (UniProt Q8ZPK0); test: as above; remark: listed apart in the source
[4] = target: the molecule itself; test: cross-linking; 1 % (v/v) formaldehyde, purified DmsD (2 µM) with or without synthetic peptide 2 (100 µM), 30 min, 50 mM HEPES pH 7.6, 150 mM KCl; SDS-PAGE and anti-DmsD immunoblot

Chain of YnfE signal peptide (Salmonella enterica) (P77374 1-43): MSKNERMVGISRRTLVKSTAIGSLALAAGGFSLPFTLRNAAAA

DmsD (from UniProt Q8ZPK0)
Kd [1]: 45 nM

spYnfE-T18 fusion (42-residue YnfE Tat signal peptide at the N-terminus of T18) (domain or fragment)
β-galactosidase activity (positive control, 100 %) [2]: 1650 Miller units | β-galactosidase activity (positive control, 100 %) [3]: 1720 Miller units

B1: Recombinant S. enterica DmsD, purified, hexa-histidine tag removed (natural protein, Salmonella enterica serovar Typhimurium, UniProt Q8ZPK0 1-204, looked up)
chain: MTTFLQRDDFAVTARVLGALFYYSPESHETAPLVQALLNDDWQAQWPLDAEALAPVAAMFKTHSEESLPQAWQRLFIGPYALPSPPWGSVWLDRESVLFGDSTLALRQWMRENGIQFEMQQNEPEDHFGSLLLLAAWLAENDRHHECEQLLAWHLFPWSSRFLDVFIDHAGHPFYQALGQLARLTLAQWQAQLIIPVAVKPLFR
notes: DmsD of S. enterica serovar Typhimurium, 204 residues; The forward primer encodes ENLYFQG before the first methionine; also called purified DmsD; pQE-His-TEV-DmsDst; not shown: His6, N-terminal, cleaved
stoichiometry N [4]: 2
